Each block holds one substance with its values, some of them ahead of it.
Columns and labels:
[1] = molecular target: C_(γ1-3) chain (VH-deleted human IgG1 heavy chain) (human); test: non-reducing SDS-PAGE with immunoblot; culture supernatants of HEK293 transfectants 48 h after transfection; 4-20% gels, reducing and non-reducing; probed with anti-human IgG-Fc and anti-human Cκ; covalent assembly
[2] = molecular target: C_(γ2-3) chain (Fc fragment containing the hinge region) (human); test: as above
[3] = molecular target: Cκ chain (Vκ-deleted human kappa light chain) (human) (UniProt P01834); test: non-reducing SDS-PAGE with immunoblot; culture supernatants of HEK293-BiP cells transfected with LCs alone, 48 h after transfection; reducing and non-reducing gels

- stoichiometry N [1]: 2
Substance: C_(γ1-3) chain (VH-deleted human IgG1 heavy chain) (domain or fragment)

- stoichiometry N [2]: 2
Substance: C_(γ2-3) chain (Fc fragment containing the hinge region) (domain or fragment)

- stoichiometry N [3]: 2
Substance: Cκ chain (Vκ-deleted human kappa light chain) (from UniProt P01834 1-107) (domain or fragment)
